Test [1] deals with glutathione transferase P1-1 C101S mutant (human). Description: cross-linking.
Test [2] shares this target. In words: ESI-MS.
Test [3] deals with glutathione transferase P1-1 C47S mutant (human). In words: cross-linking.
For test [4] the target is unchanged. Description: ESI-MS.

With “glutathione transferase P1-1 C101S mutant (enzyme)”, the relative abundance of peak L (C101S dimer + 2×MeOH) in test [1] was found to be 18%. The relative abundance of peak C (C101S dimer) in test [2] stood at 5%.

For the substance “glutathione transferase P1-1 C47S mutant (enzyme)”, in test [3], the relative abundance of peak E (C47S dimer + 2×[Pt(NH3)]) was 54% and the relative abundance of peak F (C47S dimer + 2×[PtCl2] + [Pt(NH3)2]) was determined as 24%. The relative abundance of peak C (C47S dimer) in test [4] is 5%.

The values are drawn from PMC6628828.
